Reference: PMC6179999

How the values were obtained:
P27467 [1] = experiment: AUC; AUC-FDS; conditioned medium of L cells secreting GFP-Wnt3a co-cultured with HEK293 cells secreting mouse sFRP2
P27467 [2] = experiment: AUC; AUC-FDS of GFP-Wnt3a in culture medium with serum from which afamin was immuno-depleted before the cultivation; peak areas normalised by the whole area
P27467 [3] = experiment: AUC; AUC-FDS of GFP-Wnt3a in culture medium with mock-treated serum; peak areas normalised by the whole area

Substance: GFP-tagged mouse Wnt3a secreted from stably transformed mouse L cells
- relative area of HMW complex peaks, with sFRP2 (P27467 [1]): relative area of HMG peaks was decreased from 46.4 ± 0.8% to 33.6 ± 2.9% by the addition of sFRP2
- relative area of the HMW peaks, afamin pre-depleted serum (P27467 [2]): that of the HMW peaks was increased from 51.1 ± 4.8% to 69.6 ± 1.2%
- relative area of the HMW peaks, mock-treated serum (P27467 [3]): that of the HMW peaks was increased from 51.1 ± 4.8% to 69.6 ± 1.2%
